In assay [1] the target is T1, human PSCA (prostate stem cell antigen, PSCA v.1) (human, UniProt O43653 12-83).
T1 construct: The whole entry is named; also called PSCA变体1; 细胞表面PSCA
T1 sequence: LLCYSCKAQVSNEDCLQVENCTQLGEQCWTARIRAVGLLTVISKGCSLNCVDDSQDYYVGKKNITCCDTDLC
In words: FACS-based affinity on cell-surface PSCA (LAPC9AI cells).

The target of assay [2] is T1, human PSCA (prostate stem cell antigen, …). In words: FACS saturation binding on LAPC9AI cells, one-site binding (hyperbola) fit, Graphpad Prism.

Where “and” joins values, the source holds several entries; their conditions need not be identical. Identical values can stand only once.

B1: anti-PSCA MAb H1-1.10 (antibody, V domains shown)
VH: QLQESGPGLVKPSQTLSLTCTVSGGSISSGGYYWSWIRQHPGKGLEWIGYIYYSGSTYYNPSLKSRVTISVDTSKNQFSLKLSSGTAADTAVYYCARDHITMVRGVPKGMDVWGQGTTVTVSS
VL: QLTQSPSSLSASVGDRVTITCRASQSISRHLNWYQQKPGKAPKFLIYVASSLQSGVPSRFSGSGSGTDFTLTISSLQPEDFATYFCQQSYSIPRTFGQGTKVEIKR
notes: Fully human IgG1 (gamma 1) / kappa antibody from XenoMouse immunised with B300.19/PSCA cells; tested as hybridoma supernatant or purified antibody; also called PSCA H1-1.10; H1/1.10.1.1
Turning to B1, the Kd (commonly the constant that tells how readily two partners part at equilibrium) in assay [1] was 0.6 nM; in assay [2], 0.593 nM and 0.636 nM.
